Results taken from patent EP4810052A2 (Gubra A/S, dated 2026).
Non-standard residues stand in square brackets, D forms with d. No end group written: not given here. NMeI = CC[C@H](C)[C@H](NC)C(=O)O; Nle = CCCC[C@H](N)C(=O)O; lip = not defined here; Aib = CC(C)(N)C(=O)O

T1: human corticotropin-releasing hormone receptor 1 (human, UniProt P34998 24-415)
T1 sequence (looked up): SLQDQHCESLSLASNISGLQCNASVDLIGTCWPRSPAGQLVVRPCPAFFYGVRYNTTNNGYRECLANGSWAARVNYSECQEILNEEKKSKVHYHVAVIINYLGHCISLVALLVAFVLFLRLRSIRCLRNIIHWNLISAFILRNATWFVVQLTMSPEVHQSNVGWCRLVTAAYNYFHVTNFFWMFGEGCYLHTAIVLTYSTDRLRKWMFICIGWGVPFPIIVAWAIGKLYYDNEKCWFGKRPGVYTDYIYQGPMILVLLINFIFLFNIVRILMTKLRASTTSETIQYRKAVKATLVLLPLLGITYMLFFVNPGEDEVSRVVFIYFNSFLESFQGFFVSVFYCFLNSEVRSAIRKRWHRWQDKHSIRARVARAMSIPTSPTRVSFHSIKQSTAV


The binders below were run against T1, human corticotropin-releasing hormone … (assay: cell-based or functional assay).

hCRHR1 EC50 (nM); HTRF cAMP assay, CHO-K1 cells stably expressing hCRHR1 [nM]	Binder
> 5000	[NMeI]VLSLDVPIGLLQILLSQARARAAREQAK(lip)[Aib]NAEI[Nle]AEV-NH2 (reading uncertain) [SEQ ID NO: 132]
56	IVLSLDVPIGLLQILLEQARARAAREQAKTNAEI[Nle]AEV-NH2 (not fully specified (residue 29); also: lipid and spacer on Lys29 not given here) [SEQ ID NO: 45]
> 5000	IVLSLDVPIGLLQILLSQARARAAREQAKENAEI[Nle]AEV-NH2 (not fully specified (residue 29); also: lipid and spacer on Lys29 not given here) [SEQ ID NO: 239]
> 5000	[NMeI]VLSLDVPIGLLQILLSQARARAAREQAK(lip)ENAEI[Nle]AEV-NH2 (reading uncertain) [SEQ ID NO: 101]
> 5000	IVLSLDVPIGLLQILLSQARARAAREQAK(lip)TNAEI[Nle]AEV-NH2 (not fully specified; reading uncertain) [SEQ ID NO: 83]
> 5000	IVLSLDVPIGLLQILLSQARARAAREQAK[Aib]NAEI[Nle]AEV-NH2 (not fully specified (residue 29); also: lipid and spacer on Lys29 not given here) [SEQ ID NO: 237]
> 5000	IVLSLDVPIGLLQILLEQARARAAREQAKTNAEI[Nle]AEI-NH2 (not fully specified (residue 29); also: lipid and spacer on Lys29 not given here) [SEQ ID NO: 69]
> 5000	IVLSLDVPIGLLQILLSQARARAAREQAKTN[Aib]EI[Nle]AEV-NH2 (not fully specified (residue 29); also: lipid and spacer on Lys29 not given here) [SEQ ID NO: 234]
> 5000	IVLSLDVPIGLLQILLEQARARAAREQAK[Aib]NAEI[Nle]AEI-NH2 (not fully specified (residue 29); also: lipid and spacer on Lys29 not given here) [SEQ ID NO: 236]
> 5000	IVLSLDVPIGLLQILLSQARARAAREQAK(lip)TNAEI[Nle]AEI-NH2 (not fully specified; reading uncertain) [SEQ ID NO: 89]

Biological target: T1, human corticotropin-releasing hormone …
Assay: cell-based or functional assay
Remark: another data set of the same source

hCRHR1 EC50 (nM); HTRF cAMP assay, CHO-K1 cells stably expressing hCRHR1 [nM]	Binder
> 5000	IVLSLDVPIGLK(lip)QILLEQARARAAREQATTNAEILAEV-NH2 (not fully specified; reading uncertain) [SEQ ID NO: 261]
110	lip-IVLSLDVPIGLLQILLEQARARAAREQATTNAEILAEV-NH2 (not fully specified; reading uncertain) [SEQ ID NO: 260]

The next lines start with the binder.

Binder	hCRHR1 EC50 (nM); HTRF cAMP assay, CHO-K1 cells stably expressing hCRHR1 [nM]
[NMeI]VLSLDVPIGLLQILLEQEKQEKEKQQAK(lip)TNAQILAQV-NH2 (not fully specified; reading uncertain) [SEQ ID NO: 9 (prior art peptide)]	510
IVLSLDVPIGLLQILLEQARARAAREQATK(lip)NAEILAEV-NH2 (not fully specified; reading uncertain) [SEQ ID NO: 4]	> 5000
K(lip)IVLSLDVPIGLLQILLEQARARAAREQATTNAEILAEV-NH2 (not fully specified; reading uncertain) [SEQ ID NO: 11 (prior art peptide)]	670
[NMeI]VLSLDVPIGLLQILLEQARARAAREQAKTNAEILAEV-NH2 (not fully specified (residue 29); also: lipid and spacer on Lys29 not given here) [SEQ ID NO: 5]	> 5000
IVLSLDVPIGLLQILLEQARARAAREQAK(lip)TNARILARV-NH2 (not fully specified; reading uncertain) [SEQ ID NO: 2 (lipidated version of native UCN2)]	> 5000
Ac-IVLSLDVPIGLLQILLEQARARAAREQAK(lip)TNAEILAEV-NH2 (not fully specified; reading uncertain) [SEQ ID NO: 8]	560
PVLSLDVPIGLLQILLEQARARAAREQAK(lip)TNAEILAEV-NH2 (not fully specified; reading uncertain) [SEQ ID NO: 7]	> 5000
[NMeI]VTSLDVPIGLLQILLEQEKQEKEKQQAK(lip)TNAEILAQV-NH2 (reading uncertain) [SEQ ID NO: 10 (prior art peptide)]	68

Biological target: T1, human corticotropin-releasing hormone …
Assay: cell-based or functional assay
Remark: another data set of the same source

hCRHR1 EC50 (nM); HTRF cAMP assay, CHO-K1 cells stably expressing hCRHR1 [nM]	Binder
> 5000	[NMeI]VLSLDVPIGLLQILLEQARARAAREQAK(lip)ENAEILAEV-NH2 (reading uncertain) [SEQ ID NO: 18]
> 5000	IVLSLDVPIGLLQILLEQARARAAREQAK[Aib]NAEILAEV-NH2 (not fully specified (residue 29); also: lipid and spacer on Lys29 not given here) [SEQ ID NO: 19]
> 5000	[NMeI]VLSLDVPIGLLQILLEQARARAAREQAK[Aib]NAEILAEV-NH2 (not fully specified (residue 29); also: lipid and spacer on Lys29 not given here) [SEQ ID NO: 20]

Continued, binder first:

Binder	hCRHR1 EC50 (nM); HTRF cAMP assay, CHO-K1 cells stably expressing hCRHR1 [nM]
IVLSLDVPIGLLQILLEQARARAAREQAK(lip)TN[Aib]EILAEV-NH2 (reading uncertain) [SEQ ID NO: 15]	> 5000
IVLSLDVPIGLLQILLEQARARAAREQAK(lip)TNVEILAEV-NH2 (not fully specified; reading uncertain) [SEQ ID NO: 14]	> 5000
IVLSLDVPIGLLQILLEQARARAAREQAK(lip)TNLEILAEV-NH2 (not fully specified; reading uncertain) [SEQ ID NO: 12]	> 5000
IVLSLDVPIGLLQILLEQARARAAREQAK(lip)ENAEILAEV-NH2 (not fully specified; reading uncertain) [SEQ ID NO: 17]	> 5000
IVLSLDVPIGLLQILLEQARARAAREQAK(lip)TNIEILAEV-NH2 (not fully specified; reading uncertain) [SEQ ID NO: 13]	> 5000
